# Experimental data from patent CN105646713A (UNIV CHINA PHARMA, dated 2016).
# T1: CD24多肽 (human, UniProt P25063 27-59)
# T1 construct: domain: CD24核心区; also called CD24核心区多肽; 抗原肽CD24
# T1 peptide (looked up): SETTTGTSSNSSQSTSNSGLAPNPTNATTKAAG
# Biological target: T1, CD24多肽
# Test: Competitive ELISA by the Friguet method: 10 pM antibody preincubated overnight with 0-6.25e-10 M antigen, then free antibody captured on coated CD24 peptide; KD from linear regression
binder,measurement,value
"单克隆抗体E4 (antibody, V domains shown, also called E4杂交瘤细胞株抗体) VH: QVKLEESGGGLVQPGGSLKISCAASGPDFSRYWMSWVRQAPGKGLEWIGEINPDYSTINYTPSLRDKFIISRDNAKNTLYLQMSKVRYEDTSLYYCVRQGDYWGQGTSVTVSS VL: not shown",Kd,0.84 nM
